# Where no end group is shown, it is not given here.
# B1: Phage-2024 (peptide)
# peptide: VQKWCIPAWMCDYV
# notes: Peptide-180 library clone, tested as clonal phage supernatant
# B2: Phage-2025 (peptide)
# peptide: ELKRCTPSWMCEGI
# notes: as for B1
# B3: Phage-2026 (peptide)
# peptide: LEKWCTPLWMCVGI
# notes: as for B1
# B4: Phage-2031 (peptide)
# peptide: VEKWCIPSWMCAEV
# modifications: cysteine pairing not given here; also: fused to phage pIII, pIII sequence and linker not given here
# B5: Phage-2038 (peptide)
# peptide: MERWCKPAWMCADM
# modifications: cysteine pairing not given here; also: fused to phage pIII, pIII sequence and linker not given here
# Target: T1, Anti-PSMA Fab (SEQ ID NOs: 19, 20)
# T1 construct: Biotinylated PSMA Fab captured on neutravidin coated plates in the phage ELISA; also called 006 PSMA Fab
# Assay: phage binding ELISA; biotinylated PSMA Fab on neutravidin plate, clonal phage, anti-M13-HRP detection
row,Binder,"Anti-PSMA Fab (SEQ ID NOs: 19, 20) signal"
1,B1,1.82
2,B2,1.82
3,B3,1.82

# Target: T2, Anti-PSMA Fab (SEQ ID NOs: 19, 20)
# T2 construct: Biotinylated and captured on neutravidin coated plates in the phage ELISA; also called 006 PSMA Fab
# Assay: phage binding ELISA; biotinylated PSMA Fab on neutravidin plate, bound phage detected with anti-M13-HRP
# Experimental: (§1) Clonal phage were harvested as crude supernatants and screened via standard ELISAs. […] Prior to the addition of clonal phage. wells were incubated with blocking buffer and PSMA antigen or blocking buffer alone. Without washing or aspirating, clonal phage supernatants were then added to the wells and incubated for a short time. Wells were then washed followed by detection of bound phage using a horse radish conjugated anti-M13 antibody.
row,Binder,"Anti-PSMA Fab (SEQ ID NOs: 19, 20) signal"
1,ELQRCTPWWMCFDV [Phage-2027],1.81
2,IIKWCIPEWMCYMH [Phage-2028],1.81
3,EGKWCIPPWMCERN [Phage-2029],1.81
4,FEKWCIPSWMCENA [Phage-2030],1.81
5,B4,1.81
6,DIKWCIPPWMCQVE [Phage-2032],1.81
7,WPMLCIPEWMCDGL [Phage-2033],1.8
8,IVKWCTPEWMCVGF [Phage-2034],1.8
9,SLNWCIPEWMCEGF [Phage-2035],1.8
10,EAKWCIPAWMCEDA [Phage-2036],1.8
11,ASPMCIPEWMCSGV [Phage-2037],1.8
12,B5,1.8
13,DLPWCIPAWMCMGL [Phage-2039],1.8
14,VHKWCIPSWMCEAP [Phage-2040],1.79
15,QMKWCTPEWMCVGM [Phage-2041],1.79

# Target: T2, Anti-PSMA Fab (SEQ ID NOs: 19, 20)
# Assay: phage binding ELISA; PSMA Fab on plate pre-incubated with PSMA antigen as competitor, anti-M13-HRP detection
# Experimental: as §1
row,Binder,Anti-PSMA Fab signal in the presence of PSMA
1,ELQRCTPWWMCFDV [Phage-2027],0.0689
2,IIKWCIPEWMCYMH [Phage-2028],0.104
3,EGKWCIPPWMCERN [Phage-2029],0.0762
4,FEKWCIPSWMCENA [Phage-2030],0.0725
5,B4,0.086
6,DIKWCIPPWMCQVE [Phage-2032],0.0691
7,WPMLCIPEWMCDGL [Phage-2033],0.0977
8,IVKWCTPEWMCVGF [Phage-2034],0.154
9,SLNWCIPEWMCEGF [Phage-2035],0.0793
10,EAKWCIPAWMCEDA [Phage-2036],0.0685
11,ASPMCIPEWMCSGV [Phage-2037],0.0687
12,B5,0.0809
13,DLPWCIPAWMCMGL [Phage-2039],0.0665
14,VHKWCIPSWMCEAP [Phage-2040],0.0914
15,QMKWCTPEWMCVGM [Phage-2041],0.0767

# Target: T1, Anti-PSMA Fab (SEQ ID NOs: 19, 20)
# Assay: phage binding ELISA; Fab-coated wells pre-incubated with PSMA antigen as competitor, anti-M13-HRP detection;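 also: clonal phage supernatants screened, with reference wells given blocking buffer only (no PSMA antigen) before phage were added for a brief incubation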
# Experimental: as §1
row,Binder,Anti-PSMA Fab signal in the presence of PSMA
1,B1,0.0734
2,B2,0.059
3,B3,0.078
